Data: the domain aggregation screens of Martell et al. (2025)

Assay: soluble fraction after stress (log2 fold change); higher = more stays soluble; pooled small domains, quantitative proteomics
Conditions: stress: 75 degC
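Also: 20 min heating vs room temperature control held 20 min.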

Sequence	soluble fraction (log2)
HMSTPLVATLRKRIIDGHYPPGERLAEIPVAEAFGVSRTPVRLAFRTLEQEGLLEKAGKRGYAVRA	-0.164
HMSTQVPDVKERSQEEARSILESAGFKVTPAVKTEDSADIAKDMVTKTDPAAGQSVPKGTTITIYVSS	0.126
HMSTRLIGEIGVVTKDLGAGLKENGSIQIGREEWPAETKDMEHIPMGTRVKVIHIEGTRLVVEA	-0.561
HMSTSRAEIIAFLKSNPSSEYKHELETKLDEMDWAEAVKGNSEESFLAYKQRQPNGTHNGEADEKLKVLLV	-0.0423
HMSTVISPLPGNIIKVLVPEGKSVKRGDTILTIESMKMENSIKAAYDGVVKKIYVQQAQIVMQGDPLFDL	-2.86
HMSVALSENIKTRRKALKMSQEYVAEQLDISRQAVAKWEAGKSEPTTENLVKLAALFEMSVSELVE	-0.969
HMSVDDVALRLEFGPSDAEALAFVHRHGAILSETTDRDTGVVSVHVRLSEADAGRFNQRYGV	-0.0968
HMSVDDYLKFSGSGTYWNTQDRGKTYLVNGQQRPLRDKEYLPDVMHRHVIDFITKHRDRPFYIYYSM	0.173
HMSVDVEGNQRIPTEQVLSELRDVGVSFGKRVSGLNADTIRNQMIINNDEIAWLGVNVRGSRVYVEITERI	0.125
HMSVERIEPPLPLIDTLLALRDALERPLSREENAFLSRRFAGGATRAQIDALAAQFRGAAAAESKV	0.0516
HMSVETSDLLPLIEQVLSLNPDKVKEYQNGKKGLLGFFMGQIKQTAGVAIDVGTLKPLLEDALHKDL	-0.861
HMSVEYRKTLSDGNEYQIVKEKNGYVIKKSLNEGLDYLEPMKNRKYYSSYSQAFKRLNLIAKEVNINEGYD	-0.511
HMSVFGMEIGKTTEAEAGRMYRLNKEQLNPYSGGYQYSVNPKAIDFSGLEQVTLIFDEKKVLVYVQAV	0.144
HMSVIETLLSDREREVLTHLVNGYDAKRIAEITGISTLTVRKHIANIYTKLHVNSKAQVISMAHKNKWF	-2.7
HMSVIKERLTEFLTYKGIGQIKFAEAAGLSRGFVNVLGDGISSKSLNKISQAFPELNTLWLTTGEGEML	-1.72
HMSVKTIRKTEFAKRLYSLMLEKNWNQSDLARASGMGRDSVSQYIRANNTPSPQNLKKLAEALGVEPVELY	-2.05
HMSVKYLQIYHAIREKILSNEYAINQQLPDEITLTKEFNSSRMTVKKALDLLVSEGLIFRKRGQGTFVLSR	-3.67
HMSVLDEVRKLSFHQRNAVFLFYFEGYSMKEIAQIFHVKEGTVSSWLTRARKQLRKQMEEEVLYDESLP	-0.473
HMSVLLDDLSPREREILQLVVEGHSSTKIAGMLGLASATVDTYRSRLMAKLHIDNLPDLVRFAIRHGLIS	-2.46
HMSVLLKEEGSLQLARHGAAYFIIYSAQEHPNQRRHLKISEEESNRIMEGTPIEEIFLAYSG	-1.67
HMSVLQGLIESFKAGDRNLYEVAERLNVTEPFLAEALKDYRARFPKGVQVDNFWISFRPYLTIAEV	-1.17
HMSVNEKVRLFRELNQWSQEEMAERMNMSVAGYAKIERGETNISLHKLKQIASVLQIDLLDLVS	-2.1
HMSVPEAAERAIDVAQMRRALGELSPEQQRVLELAYFGGLTRQEIARATGTPLGTVHTRARLGLQNLRARL	-0.306

Sequence	soluble fraction (log2)
HMSVPRVWTDIQGRRVKGDFEGLRGDLVVLRVGGKSYAFPLVRLIASDQAYARSLVAGNPSK	-1.5
HMSVPSLVGKTDSEAQSAIKSAGLKVGTVTYQYSDETEKGYVVSQSPYSGNKVNAGSTVNIVVSKGK	0.0467
HMSVPSVAAVREQTGLSQVKFASLLGVSVRTLQEWEQGRRAPSGAARTLLMVAAKNPQALLEV	-1.31
HMSVSVEEDADGRVWVYYQDQKMDITDLFDENGVYGFNLEKGDRTVYVEVTKNADGTYSFTQTD	0.427
HMSVTIENQINTYFQTRDKISRDELVALIKKDFANWTDNTINIYVSSLQKRGIIHSLSRGMYALGN	-4.25
HMSVTYRLLITSSPGQAEVFLDGKRVGITPFSARLAAGWYQVRVSKEGYNLWEQHVQLREDQRLTATLT	-3.17
HMSWAAQVVDKMTNDQLIKSLNEIVNTGKQLGLDITVEQNGDKNFIMTVKDSKGNVQLVTPIG	0.108
HMSWEQELIEKANEIIDLYPEKRSALGPLLYLAQERDGYISDESIVEISNLVGITEVQVKSVASFYSMYK	-3.62
HMSWNIHEAVEYYKGQDAPQNQFALVELLKEVQEHNGGVLTDIAVEEIAALLNTKVTFLNAVIKRYPSLK	-0.661
HMSYEDLIQAVSGHFGIEIRALLSEDRKKENMIPRQVAMYLLKNKLHYTYERIGNIFSGRNHTAVMYSV	-0.263
HMSYGKVQFVIDAKDAVLSIDGKETDYEKPVKLTYGSHTITVYSSDYDTWKRNLYVNSEKSTVVINLA	-3.13
HMSYKDIKEASDTGTYRDEENNIDVKWQKLFNGHNEYFDIEAYRDGERVEINNQQADRYIYLIKQEMD	0.678
HMSYPEIFQSLTEREQKIADMIAEHLSNKEIAEKMFLSEGTIKQYINQIYSKLQITGDIRNKRKQLIELFH	-1.62
HMSYTPGQWVEASMPNATFFRIVPSGNATADKMLAVATPMKVISTSGTYVKVELDSGDVGFVPEIMV	-0.199
HMTAEASELRERIRAAMATLPPAQQRVIELAYFEGLTQREIAALLNEPLGTIKTRMRLGMRKLKDVL	-2.35
HMTAIKAGDLVKITGTKYYGGQTIPGWVKNQNWYVQEVSGDRAVINKNESGTNAIMSPIRVSDLTPVS	0.036
HMTALPPNVSIDSDERRLLEAIGFDPVDMDVLARDGQFSSVDLFRLLVSLELKGLVENQHGAYQRL	-1.85
HMTALSAREHEVLQLITRGYTADEIAAMLQISRHTALTYVRRIYSKLKVNSKAEAIFEVRQR	-0.926
HMTANPHKPEPLQIDTSDITPGVTVIHKAFGNGTVVSVDNNRILIDFDGIEKKFPFPGAFLYGFLQK	-0.547
HMTAPDDFIRAEVTASGKNGMAVAELSKRVRTRFKSFKVRELGYPHLAGYLADVEGVRVYKQGRENWVAK	-0.899
HMTAQASDIEKVLQVIETLGFRGHTLPGENRTAIGVTGNRGSIDPAHFENLPGVADAIRVTKPY	-0.0976
HMTARPTLEKLKYMIHEAGITENSLKVIVATKGHYGLDADISTYSDDFITRWIIPNWTKIVQTISNNK	-1.81
HMTASSYMGMQLGRLEELLKKEVLSLSEKTELKDLISDFDKIPEVVSPKIIGRYLQLKNQHFAKINA	-0.437

Sequence	soluble fraction (log2)
HMTAVVPNFKGKLISELSNFVADKNVRYTIIDSIYDPEEKSGIVIKQDPEEKTQVKHNRIIYLYVTST	-1.51
HMTDDFAGRFNELLIHNQETAVTAATRLEVSPAVITKWRQGKSIPSGEYIKRIVETYHVSADYLLGVIDTP	-0.838
HMTDEEFSRIVKYTAVRYGINLYHKKVMVEGRLSNYLAANGFKSYTEYMDRVEADYTGQEAQNLINILTT	-2.53
HMTDFDPDGREKLIKVQKALHFNNHQLADALRVGQATFSSYIYGRVAAGVPVRVVKAAEDLLKNSKATV	-0.531
HMTDFDWSLFTQQLKRFNLFLSYDDREKLQTFQTLYGLNELDLAEYVAKASAGEKNGLNFNYLRQLINKEK	-1.46
HMTDFNTFSDAIIAAVGSRASGLKVVDNAVSVMVDVSGLNEDQRVEIEADVRAAAEHAGAQSVRIMLT	-0.58
HMTDLALHIGKTLRELRQRRGWSLDKTAQATGVSKAMLGQIERGESSPTVVTLWRISSGLQASFSEFLPP	-3.69
HMTDLDVAVTMTVALEEAVNGATRRVRLPNGKELNVKIPAGVAAGQQIRLKGQGETAPGHRPGDVLITVNI	-0.712
HMTDLQNDIQAFNLKKMSYQHETKKLEEKRNPEKLEKLEQDIQALYLRIMENPNMRAFDSAKQALYLQIM	-0.948
HMTDLVVGLAGITLEPLRPAGKAEFNGSVVDVVSLGDYIEKSTAIQIVEIEGNRIVVHHGED	-0.865
HMTDQYEVQNLVGLTVREAQEKEGVKDIFEVREVGSEFSAEYDAGLIVRQSPDAGEQRKGEGLVIEVWVSA	0.106
HMTDSLELADLLRRAIITGEYKPRERLVEMELAQKYSVSRTPVREALKHLEALGLVKMERYKGAMVAD	-0.911
HMTDSQLVEAENHVALRQAMAHLGPRERELIGLYYFEEQSQTQIAARFGVSQMQVSRWLTSAVGRIRGQMA	0.209
HMTDWNTVEKETLSAIQKVLSGQASWIDLSPADHSIRHMQHEMVQQAGLISQSYGKEPMRRIRIYQNP	-0.039
HMTEDADIERRLTGILASAGWYRSLAVEVKEGIVYLDGATASGNHRDWAGSLAAKTEGVVAVVNRIEVQP	-1.86
HMTEDIAVRILEFLEDNNGFYALNDKTPSEKIHDLFGVSKKKFKIALGGLYKQRLITVSDAGVTLVK	-1.67
HMTEDTPIIVERVVADIDENVVAIVRKFKDAFKSITAQREIKKKLRSILWVNYQIKDQEVFDKAYQYIEMY	0.241
HMTEEDVVIFSGLSDRDLKMVQTELANSGIKYTLPTSGTVSVPNSEIARAQMVLAMAGIPRS	0.246
HMTEEVIIQNYIGKNFNDVRDELEAKGITVDEPNMKYSDEFKENTIMAQSIKPGQPLKPGGFNSIKFDVS	-0.0167
HMTEFFNMQDMFYFKLTGDVTSKERRQSLGKILGIGYGNAAQMVSRLNNYGITKEEFTNAINEIEKQMEAG	-0.715
HMTEISGIEKFLASGAINGIGPAMAKKIVAEFGEKTLEIIAKSPNELLKVPGIGKKTAEKISTSYLEQ	-0.04
HMTEKEEERTEDLNYYRLNLISMLKSSYPEYLDDEEFISNRSQEAAEAFEDAVRSGSNYLDASAESNRTLY	-0.229
HMTEKIRLTVDEAGKNQRVDKYISTLLTQFSRSSIKTWIETGNILLDNTRTKPRTLLSPGQVIDIQPRFED	-1.09
